Patent US20230374151A1

What was measured:
[1] = biological target: TnMUC1 peptide (fully glycosylated), biotinylated; assay: SPR (Biacore T200): biotinylated TnMUC1 peptide batch 65-1 captured on CAP chip, scFv as analyte, 1:1 fit, average
[2] = biological target: STnMUC1 peptide, biotinylated; assay: SPR (Biacore T200): biotinylated STnMUC1 peptide (35-1) captured on CAP chip, scFv as analyte, 1:1 fit, average
[3] = biological target: STnMUC1 peptide, biotinylated; assay: SPR (Biacore T200): biotinylated STnMUC1 peptide (35-1) captured on CAP chip, scFv as analyte
[4] = biological target: TnMUC1 peptide 1 (partially glycosylated), biotinylated; assay: SPR (Biacore T200): biotinylated TnMUC1 peptide 1 (96-1) captured on CAP chip, scFv as analyte, 1:1 fit, average

STnMUC1 peptide, biotinylated, sequence (main, as listed by the source): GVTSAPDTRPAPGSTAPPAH

Substance: murine 5E5 scFv protein (23-P1) obtained from Creative Biolabs
- Kd [1]: 26.6 nM
- koff [1]: 0.000845 s⁻¹
- Kd [2]: 84.1 nM
- koff [2]: 0.000282 s⁻¹
- kon [2]: 3350 M⁻¹ s⁻¹
- Kd [3]: 84 nM
- Kd [4]: 28.7 nM
- koff [4]: 0.000803 s⁻¹
